Measurements from patent US20130012451A1 (RESEARCH FOUNDATION OF STATE UNIVERSITY OF NEW YORK, published 2013).
One block for each binder: values may come before it.

Columns and labels:
[1] = molecular target: Matrix Metalloproteinase-9 (MMP-9), wild type (Homo sapiens (Human), UniProt P14780 20-707); experiment: cell-based or functional assay
[2] = molecular target: T1, MMP-9 with a carboxy-terminal Myc tag (MMP-9/Myc) (Homo sapiens (Human), UniProt P14780 20-707); experiment: co-immunoprecipitation, co-transfected COS-1 cells
T1 construct: Expressed from cDNA in COS-1 cells and secreted as proMMP-9; also called Myc-tagged MMP-9; proMMP-9/Myc; not shown: C-terminal Myc tag from the pcDNA3.1-myc vector
Text: FIG. 4. Blade IV of the PEX domain of proMMP-9 is required for homodimerization and cell migration. (A) Ribbon diagram of MMP-9 PEX domain (PDB:1ITV). Each outermost β-strand from the four blades was swapped with the corresponding MMP-2 PEX domain sequences (upper panel). Lower panel: Schematic diagram of substitution mutations at the outermost 3-strands of four blade of MMP-9 by corresponding MMP-2 sequences. […] The conditioned medium was also examined by gelatin zymography (lower panel). […] (P-values reflect comparison with MMP-9 transfected cells: *P<0.05). (D) A peptide mimicking MMP-9 IVS4 abrogates MMP-9 dimerization examined by co-immunoprecipitation (upper panel). Total cell lysate (20 μg) was also examined by an immunoblotting assay using anti-HA antibody (lower panel). (E) Dose dependent inhibition of MMP-9-mediated cell migration by IVS4 peptides. No effect was found using scrambled peptides. COS-1 cells transfected with an empty vector or MMP-9 cDNAs were examined by a transwell chamber migration assay for 6 hours in the presence of DMSO control, specific and scramble peptides at different concentration. Each data point was performed in triplicate and the experiments was repeated three times (*P<0.05).
Each blade contains four anti-parallel […]-strands with peptide loops linking one strand to the next as illustrated in FIG. 1B. […]

IC50 (potency; inhibition of MMP-9-induced cell migration, transwell assay) [1]: 50 µM
Binder: NQVDQVGY [IVS4 peptide (NQVDQVGY)]

IC50 (potency; inhibition of MMP-9-induced cell migration, transwell assay) [1]: 12 µM
Binder: SRPQGPFL [IS4 peptide (SRPQGPFL)]

binding result [2]: no binding
B1: MMP-9/IVS4 chimera (MMP-9 with the outermost β-strand of blade IV of the PEX domain, NQVDQVGY, replaced by MMP-2 KSVKFGS) (enzyme)
chain: APRQRQSTLVLFPGDLRTNLTDRQLAEEYLYRYGYTRVAEMRGESKSLGPALLLLQKQLSLPETGELDSATLKAMRTPRCGVPDLGRFQTFEGDLKWHHHNITYWIQNYSEDLPRAVIDDAFARAFALWSAVTPLTFTRVYSRDADIVIQFGVAEHGDGYPFDGKDGLLAHAFPPGPGIQGDAHFDDDELWSLGKGVVVPTRFGNADGAACHFPFIFEGRSYSACTTDGRSDGLPWCSTTANYDTDDRFGFCPSERLYTQDGNADGKPCQFPFIFQGQSYSACTTDGRSDGYRWCATTANYDRDKLFGFCPTRADSTVMGGNSAGELCVFPFTFLGKEYSTCTSEGRGDGRLWCATTSNFDSDKKWGFCPDQGYSLFLVAAHEFGHALGLDHSSVPEALMYPMYRFTEGPPLHKDDVNGIRHLYGPRPEPEPRPPTTTTPQPTAPPTVCPTGPPTVHPSERPTAGPTGPPSAGPTGPPTAGPSTATTVPLSPVDDACNVNIFDAIAEIGNQLYLFKDGKYWRFSEGRGSRPQGPFLIADKWPALPRKLDSVFEERLSKKLFFFSGRQVWVYTGASVLGPRRLDKLGLGADVAQVTGALRSGRGKMLLFSGRRLWRFDVKAQMVDPRSASEVDRMFPGVPLDTHDVFQYREKAYFCQDRFYWRVSSRSELKSVKFGSVTYDILQCPED
notes: also called MMP-9/Blade IV; MMP-9/blade IV mutant
